Test [1] concerns the target T1, recombinant human EGFR/ErbB1/HER1 with C-terminal His tag, Cy5-labeled (human, UniProt P00533 25-645, Cy5 label (reacted with Cy5 Mono NHS Ester; sites not stated)).
T1 construct: Commercial protein; also called Cy5-EGFR; Cy5-labeled EGFR antigen; not shown: C-terminal His tag
Nature of the test: competitive TR-FRET (Eu-amivantamab/Cy5-EGFR), EC50 ratio vs Reference Material; Ex. 11 drug product, 0 months, 5 C table. The text has this: (§1) In this procedure, varying concentrations of unlabeled bispecific EGFR-cMet antibody sample compete with donor fluorophore (Europium (Eu) chelate) labeled bispecific EGFR-cMet antibody for binding to an acceptor fluorophore (Cy5)-labeled EGFR antigen. Excitation of the donor fluorophore results in a transfer of energy to the bound acceptor fluorophore (FRET process). The resultant FRET is detected by emission of light at 665 nm using a microplate reader capable of measuring time-resolved fluorescence. Sample dose response curves are compared to the RM.
(§2) EGFR Binding Materials and Methods. Certified commercial EGFR, a recombinant human EGFR/ErbB1/HER1 with C-terminal His tag is reacted with certified commercial Cy5 Mono NHS Ester to produce Cy5-labeled EGFR. Validated bispecific EGFR-cMet antibody is reacted with certified commercial Europium (Eu) chelate to produce Eu-labeled bispecific EGFR-cMet antibody. […] Fluorescence is then measured by spectrophotometry at 665 nm, plotted against antibody concentration and analyzed by a four-parameter logistic model. The antibody concentration required to obtain half of the maximum fluorescence response (EC50) is determined for RM, assay control and samples. The potencies of assay control and samples are calculated based on the ratio of the sample (or control) and RM EC50 values and reported as a percentage activity relative to the RM.
Background: TR-FRET usually uses a lanthanide donor and a delayed reading to cut background.

The target of test [2] is T2, recombinant cMet/HGFR with c-terminal His-tag, Cy5-labeled (UniProt P08581 25-932, limits assumed, Cy5 label (reacted with Cy5 Mono NHS Ester; sites not stated)).
T2 construct: Commercial protein; also called Cy5-c-MET; Cy5-labeled c-MET antigen; not shown: C-terminal His-tag
Nature of the test: competitive TR-FRET (Eu-amivantamab/Cy5-c-MET), EC50 ratio vs Reference Material; Ex. 12 drug product with rHuPH20, 3 months at 40 C.
Excerpt: (§3) In this procedure, varying concentrations of unlabeled bispecific EGFR-cMet antibody sample compete with donor fluorophore (Europium (Eu) chelate) labeled bispecific EGFR-cMet antibody for binding to an acceptor fluorophore (Cy5)-labeled c-MET antigen. Excitation of the donor fluorophore results in a transfer of energy to the bound acceptor fluorophore (FRET process). The resultant FRET is detected by emission of light at 665 nm using a microplate reader capable of measuring time-resolved fluorescence. Sample dose response curves are compared to the Reference Material (RM).
as §2, with “c-MET Binding” for “EGFR Binding”, “commercial cMet,” for “commercial EGFR,”, “recombinant cMet/HGFR” for “recombinant human EGFR/ErbB1/HER1”, “with c-terminal His-tag” for “with C-terminal His tag”, “Cy5-labeled c-MET.” for “Cy5-labeled EGFR.”, “produce Eu labeled” for “produce Eu-labeled”

In test [3] the target is T2, recombinant cMet/HGFR with c-terminal …. Nature of the test: competitive TR-FRET (Eu-amivantamab/Cy5-c-MET), EC50 ratio vs Reference Material; Ex. 2 Formulation 2 (50 mM histidine), 1 month at 40 C.
Excerpt: as §3
as §2, with “c-MET Binding” for “EGFR Binding”, “commercial cMet,” for “commercial EGFR,”, “recombinant cMet/HGFR” for “recombinant human EGFR/ErbB1/HER1”, “with c-terminal His-tag” for “with C-terminal His tag”, “Cy5-labeled c-MET.” for “Cy5-labeled EGFR.”, “produce Eu labeled” for “produce Eu-labeled”

Test [4] deals with T1, recombinant human EGFR/ErbB1/HER1 with …. Kind of test: competitive TR-FRET (Eu-amivantamab/Cy5-EGFR), EC50 ratio vs Reference Material; Ex. 2 Formulation 3 (acetate), 3 months at 40 C.
Excerpt: as §1, §2

The target is the same in test [5]. Kind of test: competitive TR-FRET (Eu-amivantamab/Cy5-EGFR), EC50 ratio vs Reference Material; Ex. 12 drug product with rHuPH20, 0 months, 5 C table.
Excerpt: as §1, §2

The target is the same in test [6]. Nature of the test: competitive TR-FRET (Eu-amivantamab/Cy5-EGFR), EC50 ratio vs Reference Material; Ex. 2 Formulation 2 (50 mM histidine), T0, 40 C table.
Excerpt: as §1, §2

Test [7] deals with T2, recombinant cMet/HGFR with c-terminal …. Kind of test: competitive TR-FRET (Eu-amivantamab/Cy5-c-MET), EC50 ratio vs Reference Material; Ex. 11 drug product, 0 months, 5 C table.
Excerpt: as §3
as §2, with “c-MET Binding” for “EGFR Binding”, “commercial cMet,” for “commercial EGFR,”, “recombinant cMet/HGFR” for “recombinant human EGFR/ErbB1/HER1”, “with c-terminal His-tag” for “with C-terminal His tag”, “Cy5-labeled c-MET.” for “Cy5-labeled EGFR.”, “produce Eu labeled” for “produce Eu-labeled”

Test [8] concerns the target T1, recombinant human EGFR/ErbB1/HER1 with …. Nature of the test: competitive TR-FRET (Eu-amivantamab/Cy5-EGFR), EC50 ratio vs Reference Material; Ex. 11 drug product, 6 months at 5 C.
Excerpt: as §1, §2

B1: amivantamab (bispecific antibody, human IgG1, kappa)
heavy 1: not shown
light 1: not shown
heavy 2: not shown
light 2: DIQMTQSPSSVSASVGDRVTITCRASQGISNWLAWFQHKPGKAPKLLIYAASSLLSGVPSRFSGSGSGTDFTLTISSLQPEDFATYYCQQANSFPITFGQGTRLEIKRTVAAPSVFIFPPSDEQLKSGTASVVCLLNNFYPREAKVQWKVDNALQSGNSQESVTEQDSKDSTYSLSSTLTLSKADYEKHKVYACEVTHQGLSSPVTKSFNRGEC
notes: The samples tested were high concentration (160 mg/mL) formulations, fresh or stored or stressed; also called JNJ-61186372; bispecific EGFR-cMet antibody
For B1, the “EGFR Binding activity relative to Reference Material (%)” value in test [1] worked out at 89%; in test [5], 92%; in test [8], 84%. For the same molecule, the “cMET Binding activity relative to Reference Material (%)” value in test [2] is 68%; in test [7], 85%. In test [3], the “cMET Binding % activity relative to RM” value is 90%. The “EGFR Binding % activity relative to RM” value is 46% in test [4] and 103% in test [6].

(Values after patent US20240034813A1 (Janssen / Centocor, published 2024).)
